Measured values: PMC3234886 (Biochemistry, 2011)
Where a chain is given by its changes, count along the chain named. Blank lines part the entries; values can stand above or below the molecule they belong to.

Assays:
[1] = molecular target: His6-Rna14 (wild type) (Saccharomyces cerevisiae) (UniProt P25298); test: SEC
[2] = molecular target: His6-Rna14 (wild type) (Saccharomyces cerevisiae) (UniProt P25298); test: AUC
[3] = molecular target: His6-Rna14 (wild type) (Saccharomyces cerevisiae) (UniProt P25298); test: cross-linking
[4] = molecular target: T1, His6-Rna14-ES (R562E/Y563S) (Saccharomyces cerevisiae, UniProt P25298 1-677, R562E | Y563S); test: cross-linking
T1 sequence (looked up): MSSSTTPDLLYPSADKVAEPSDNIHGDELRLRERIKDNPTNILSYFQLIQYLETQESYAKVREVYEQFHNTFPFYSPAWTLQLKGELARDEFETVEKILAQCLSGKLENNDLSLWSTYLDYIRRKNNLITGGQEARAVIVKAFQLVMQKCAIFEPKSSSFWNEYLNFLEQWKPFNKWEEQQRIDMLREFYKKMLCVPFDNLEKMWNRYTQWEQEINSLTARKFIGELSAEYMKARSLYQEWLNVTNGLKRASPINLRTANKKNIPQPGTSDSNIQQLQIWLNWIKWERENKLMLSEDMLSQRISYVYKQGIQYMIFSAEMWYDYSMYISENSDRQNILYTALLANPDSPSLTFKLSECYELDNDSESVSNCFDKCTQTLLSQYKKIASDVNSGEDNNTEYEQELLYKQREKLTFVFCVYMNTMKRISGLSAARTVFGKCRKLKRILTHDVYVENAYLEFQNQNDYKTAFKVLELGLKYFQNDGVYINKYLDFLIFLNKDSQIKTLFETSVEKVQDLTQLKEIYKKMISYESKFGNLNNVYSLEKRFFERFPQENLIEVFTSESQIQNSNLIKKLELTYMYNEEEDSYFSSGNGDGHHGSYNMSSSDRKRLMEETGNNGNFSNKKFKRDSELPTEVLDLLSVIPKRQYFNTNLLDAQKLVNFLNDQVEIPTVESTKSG

[5] = molecular target: T1, His6-Rna14-ES (R562E/Y563S); test: SEC
cross-linking = molecular target: the molecule itself; test: cross-linking
SEC = molecular target: the molecule itself; test: SEC
AUC = molecular target: the molecule itself; test: AUC
[6] = molecular target: MBP-tagged Pcf11/Clp1 complex (yeast, UniProt P39081 1-626; Q08685 1-445); test: pull-down
Sequence of MBP-tagged Pcf11/Clp1 complex (P39081 whole entry, chain 1 of 2): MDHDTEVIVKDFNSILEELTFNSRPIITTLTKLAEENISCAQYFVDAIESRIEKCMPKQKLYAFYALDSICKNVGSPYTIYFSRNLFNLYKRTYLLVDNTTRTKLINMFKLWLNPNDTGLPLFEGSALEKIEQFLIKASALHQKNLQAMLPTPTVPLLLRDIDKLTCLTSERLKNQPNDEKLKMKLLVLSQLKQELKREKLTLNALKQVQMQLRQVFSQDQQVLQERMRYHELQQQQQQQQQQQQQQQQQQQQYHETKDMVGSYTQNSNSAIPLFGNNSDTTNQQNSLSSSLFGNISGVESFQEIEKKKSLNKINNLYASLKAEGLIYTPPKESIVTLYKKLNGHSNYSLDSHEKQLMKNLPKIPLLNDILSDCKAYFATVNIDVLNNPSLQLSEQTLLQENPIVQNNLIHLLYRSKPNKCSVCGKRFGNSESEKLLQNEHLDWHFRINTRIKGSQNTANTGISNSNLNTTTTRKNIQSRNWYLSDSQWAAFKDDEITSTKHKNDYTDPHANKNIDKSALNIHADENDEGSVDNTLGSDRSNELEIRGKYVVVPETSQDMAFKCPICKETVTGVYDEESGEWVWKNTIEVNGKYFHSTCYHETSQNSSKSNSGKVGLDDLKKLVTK
Sequence of MBP-tagged Pcf11/Clp1 complex (Q08685 whole entry, chain 2 of 2): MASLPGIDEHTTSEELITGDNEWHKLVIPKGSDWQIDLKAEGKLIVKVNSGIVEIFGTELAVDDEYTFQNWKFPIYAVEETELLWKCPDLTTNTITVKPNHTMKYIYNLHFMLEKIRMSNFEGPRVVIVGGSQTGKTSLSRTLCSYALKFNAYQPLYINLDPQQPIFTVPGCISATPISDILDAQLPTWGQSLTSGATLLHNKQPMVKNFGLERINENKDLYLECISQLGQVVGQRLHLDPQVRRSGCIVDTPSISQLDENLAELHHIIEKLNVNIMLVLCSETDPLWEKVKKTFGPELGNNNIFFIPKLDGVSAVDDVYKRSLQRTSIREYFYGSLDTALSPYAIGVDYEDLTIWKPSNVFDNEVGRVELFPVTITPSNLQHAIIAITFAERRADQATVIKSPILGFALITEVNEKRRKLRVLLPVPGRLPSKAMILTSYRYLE

ratio of Rna14 to Rna15 (intensity of stained bands, SEC peak fractions) [1]: 2.7
stoichiometry N (Rna15 per Rna14 (2:2)) [2]: 1
stoichiometry N (Rna15 per Rna14 (2:2)) [3]: 1
Molecule: Rna15 (untagged, co-expressed with Rna14) (from UniProt P25299 1-296) (natural protein)

stoichiometry N [4]: 1 Rna15 per Rna14-ES (1:1)
ratio of Rna14 to Rna15 (intensity of stained bands, SEC peak fractions) [5]: 2.5
B1: Rna15 (untagged, co-expressed with Rna14) (natural protein, Saccharomyces cerevisiae, UniProt P25299 1-296, looked up)
chain: MNRQSGVNAGVQNNPPSRVVYLGSIPYDQTEEQILDLCSNVGPVINLKMMFDPQTGRSKGYAFIEFRDLESSASAVRNLNGYQLGSRFLKCGYSSNSDISGVSQQQQQQYNNINGNNNNNGNNNNNSNGPDFQNSGNANFLSQKFPELPSGIDVNINMTTPAMMISSELAKKPKEVQLKFLQKFQEWTRAHPEDAVSLLELCPQLSFVTAELLLTNGICKVDDLIPLASRPQEEASATNNNSVNEVVDPAVLNKQKELLKQVLQLNDSQISILPDDERMAIWDLKQKALRGEFGAF

B2: His6-Rna14 (wild type) (natural protein, Saccharomyces cerevisiae, UniProt P25298 1-677, looked up)
chain: T1 sequence (looked up) with E562R, S563Y
stoichiometry N (cross-linking): 2 copies of Rna14 in the complex
stoichiometry N (SEC): 2

stoichiometry N [6]: 1 Clp1/Pcf11 sub-complex per CF IA
B3: wild-type Rna14/Rna15 complex (2:2 heterotetramer) (complex, Saccharomyces cerevisiae)
chain 1: T1 sequence (looked up) with E562R, S563Y
chain 2: B1 chain
Kd (AUC): 45 µM
